Assay results as given in patent US20240209088A1.
“And” between values parts separate entries of the source, which are not always exact repeats. Equal entries are not always repeated.

Tests used:
[1] = target: full-length human CD4 on cells (human) (UniProt P01730); assay: flow cytometry of human PBMCs, donor 1, labeled Nb with anti-CD3-FITC
[2] = target: full-length human CD4 on cells (human) (UniProt P01730); assay: as above; remark: listed apart in the source
[3] = target: full-length human CD4 on cells (human) (UniProt P01730); assay: flow cytometry of human PBMCs, donor 2, labeled Nb with anti-CD3-FITC
[4] = target: full-length human CD4 on cells (human) (UniProt P01730); assay: flow cytometry of human PBMCs, donor 3, labeled Nb with anti-CD3-FITC
[5] = target: full-length human CD4 on cells (human) (UniProt P01730); assay: flow cytometry of human PBMCs, donor 1, labeled Nb with anti-CD3-FITC; the same panel in Fig. 8A prints 0.62
[6] = target: full-length human CD4 on cells (human) (UniProt P01730); assay: flow cytometry of human PBMCs, donor 1, labeled Nb with anti-CD3-FITC; the same panel in Fig. 3A prints 0,82
[7] = target: full-length human CD4 on cells (human) (UniProt P01730); assay: flow cytometry of human PBMCs, donor 1, with anti-CD3-FITC; c (nM) ~1
[8] = target: full-length human CD4 on cells (human) (UniProt P01730); assay: flow cytometry of human PBMCs, donor 2, with anti-CD3-FITC; c (nM) ~1
[9] = target: full-length human CD4 on cells (human) (UniProt P01730); assay: flow cytometry of human PBMCs, donor 3, with anti-CD3-FITC; c (nM) ~1
[10] = target: full-length human CD4 on cells (human) (UniProt P01730); assay: flow cytometry of human PBMCs, donor 1, labeled anti-CD4 antibody with anti-CD3-FITC
[11] = target: full-length human CD4 on cells (human) (UniProt P01730); assay: flow cytometry of human PBMCs, donor 2, labeled anti-CD4 antibody with anti-CD3-FITC
[12] = target: full-length human CD4 on cells (human) (UniProt P01730); assay: flow cytometry of human PBMCs, donor 3, labeled anti-CD4 antibody with anti-CD3-FITC

Row | percent of cells in the CD3+ CD4+ quadrant [1] [%] | percent of cells in the CD3+ CD4+ quadrant [2] [%] | percent of cells in the CD3+ CD4+ quadrant [3] | percent of cells in the CD3- CD4+ quadrant [3] | percent of cells in the CD3+ CD4+ quadrant [4] | percent of cells in the CD3- CD4+ quadrant [4] | percent of cells in the CD3- CD4+ quadrant [5] [%] | percent of cells in the CD3- CD4+ quadrant [6] [%] | Frequency CD3+ CD4+ (%) [7] [%] | Frequency CD3+ CD4+ (%) [8] [%] | Frequency CD3+ CD4+ (%) [9] [%] | percent of cells in the CD3+ CD4+ quadrant [10] [%] | percent of cells in the CD3- CD4+ quadrant [10] [%] | percent of cells in the CD3+ CD4+ quadrant [11] [%] | percent of cells in the CD3- CD4+ quadrant [11] [%] | percent of cells in the CD3+ CD4+ quadrant [12] [%] | percent of cells in the CD3- CD4+ quadrant [12] [%] | Substance
1 | 1.39 | 0.13 | 0.03% and 0.26% | 0.14% and 0.36% | 0.03% and 0.95% | 0.16% and 1.36% | 0.82 | 0.62 |  |  |  |  |  |  |  |  |  | non-specific fluorescently labeled GFP-binding Nb (VHH)
2 |  |  |  |  |  |  |  |  | 32.7 | 26.2 | 22.8 | 33.7 | 21.7 | 27 | 22.4 | 24.3 | 43.4 | anti-human CD4 antibody RPA-T4
